According to US20150299314A1 (TORAY INDUSTRIES, published 2015):
Changes are numbered by the printed parent chain.

T1: CAPRIN-1 protein expressed on the cell surface of human cancer cells (human, UniProt Q14444 2-709)
T1 construct: whole, on cells; Target of all flow cytometry and ADCC assays; the cell line is named under assay; also called human CAPRIN-1; cytoplasmic- and proliferation-associated protein 1
T1 sequence (looked up): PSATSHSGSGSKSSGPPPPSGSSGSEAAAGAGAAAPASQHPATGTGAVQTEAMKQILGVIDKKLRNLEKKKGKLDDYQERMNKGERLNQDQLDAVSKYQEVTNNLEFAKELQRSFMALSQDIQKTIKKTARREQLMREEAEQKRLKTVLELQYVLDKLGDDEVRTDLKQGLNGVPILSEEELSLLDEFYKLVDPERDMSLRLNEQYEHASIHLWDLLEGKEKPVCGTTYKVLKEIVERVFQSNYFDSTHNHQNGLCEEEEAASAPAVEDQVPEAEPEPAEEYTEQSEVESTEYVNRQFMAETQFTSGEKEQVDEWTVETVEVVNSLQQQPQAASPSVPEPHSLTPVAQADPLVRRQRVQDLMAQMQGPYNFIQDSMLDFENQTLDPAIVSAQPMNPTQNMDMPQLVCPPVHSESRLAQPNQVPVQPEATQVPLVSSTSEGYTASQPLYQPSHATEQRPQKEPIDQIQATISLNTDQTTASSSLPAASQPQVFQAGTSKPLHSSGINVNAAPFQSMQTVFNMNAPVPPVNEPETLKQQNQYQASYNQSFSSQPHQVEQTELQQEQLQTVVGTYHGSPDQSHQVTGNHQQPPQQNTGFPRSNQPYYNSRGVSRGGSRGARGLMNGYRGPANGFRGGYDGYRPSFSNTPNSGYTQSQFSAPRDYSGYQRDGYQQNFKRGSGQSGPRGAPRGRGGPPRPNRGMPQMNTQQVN

T2: human CAPRIN-1 recombinant protein (human, UniProt Q14444 1-709)
T2 construct: also called CAPRIN-1 protein; antigen protein (human CAPRIN-1 protein)
T2 sequence: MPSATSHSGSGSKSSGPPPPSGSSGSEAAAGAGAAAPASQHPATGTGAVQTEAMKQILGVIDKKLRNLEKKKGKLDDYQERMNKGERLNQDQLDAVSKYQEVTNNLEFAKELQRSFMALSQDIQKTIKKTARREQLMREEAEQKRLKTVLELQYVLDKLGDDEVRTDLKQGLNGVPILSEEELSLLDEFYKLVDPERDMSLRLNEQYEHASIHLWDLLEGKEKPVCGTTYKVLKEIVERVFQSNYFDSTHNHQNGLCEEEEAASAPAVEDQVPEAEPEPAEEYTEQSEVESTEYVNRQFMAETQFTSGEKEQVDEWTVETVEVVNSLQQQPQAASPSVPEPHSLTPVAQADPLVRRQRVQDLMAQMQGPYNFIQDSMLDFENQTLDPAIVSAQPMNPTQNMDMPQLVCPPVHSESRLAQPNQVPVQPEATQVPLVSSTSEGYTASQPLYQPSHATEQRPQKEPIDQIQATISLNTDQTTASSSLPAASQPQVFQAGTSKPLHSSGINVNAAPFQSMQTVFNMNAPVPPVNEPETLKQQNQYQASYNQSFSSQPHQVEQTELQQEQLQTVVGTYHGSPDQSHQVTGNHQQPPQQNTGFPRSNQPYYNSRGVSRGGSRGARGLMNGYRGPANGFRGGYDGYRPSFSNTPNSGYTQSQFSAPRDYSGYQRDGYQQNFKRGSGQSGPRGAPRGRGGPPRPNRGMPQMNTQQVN

T3: polypeptide set forth in SEQ ID NO: 430 (human)
T3 peptide: ATQVPLVSSTSEGYTA

B1: humanized anti-CAPRIN-1 antibody #2 (antibody, human IgG1, V domains shown)
VH: EVQLVESGGGLVQPGGSLRLSCAASGFSFSGSYYMSWVRQAPGKGLEWIAYIYIGDGVTAYANWAKGRFTISKDNSKNTLYLQMNSLRAEDTAVYFCARGNKLWGPGTLVTVSS
VL: DIQMTQSPSSLSASVGDRVTIKCQASQSISSYLAWYQQKPGKAPKRLIYDASNLDSGVPSRFSGSGSGTDFTFTISSLQPEDIATYYCQCTAVSSATIYGNAFGGGTKVEIK
B2: humanized anti-CAPRIN-1 antibody #3 (antibody, human IgG1, V domains shown)
VH: B1 VH with K73R, F96Y
VL: B1 VL
B3: humanized anti-CAPRIN-1 antibody #1 (antibody, human IgG1, V domains shown)
VH: B1 VH with E1Q, Q13K, K73R, S76A, T79S, K102R, P106Q
VL: B1 VL with S14A, A43P
B4: mouse anti-CAPRIN-1 antibody #31 (antibody, V domains shown)
VH: GPELVKPGASVKISCKASGYSFTGYFMNWVMQSHGKSLEWIGRINPYNGDTFYNQKFKGKATLTVDKSSSTAHMELRSLASEDSAVYYCARRIHYYYGSSYYAMDYWGQEPHH
VL: DVQITQSPSYLAASPGETITINCRASKSISKYLAWYQEKPGKTNKLLIYSGSTLQSGIPSRFSGSGSGTDFTLTISSLEPEDFAMYYCQQHNEYPWTFGGGTKLEIKR
notes: mouse hybridoma antibody; also called mouse anti-CAPRIN-1 monoclonal antibody #31
B5: mouse anti-CAPRIN-1 antibody #33 (antibody)
chain 1: GPGLVKPSQSLSLTCSVTGYSITSGYYWNWIRQFPGNKLEWMGYISYDGSNNYNPSLKNRISITRDTSKNQFFLKLNSVTTEDTATYYCATGMAWFAYW
chain 2: not shown
B6: mouse monoclonal antibody #13 (antibody, V domains shown)
VH: EVQLHQFGAELVKPGASVKISCKASGYTFTDYNMDWVKQSHGKSLEWIGDINPNYDSTSYNQKFKGKATLTVDKSSSTAYMELRSLTSEDTAVYYCARSRSYDYEGFAYWGQGTLVTVSAAKTTPPSVY
VL: AVLRCSRGLLVIWISDIQLTQSPSSLAVTAGEKVTMSCKSSQSLLWSVNQKNYLSWYQQKQRQPPKLLIYGASIRESWVPDRFTGSGSGTDFTLTISNVHAEDLAVYYCQHNHGSFLPSRSEQVPSWRSNNR
notes: mouse hybridoma antibody; also called anti-CAPRIN-1 mouse monoclonal antibody #13; anti-CAPRIN-1 monoclonal antibody #13
B7: mouse monoclonal antibody #3 (antibody, V domains shown)
VH: GGGLVKPGGSLKLSCAASGFTFSSYGMSWVRQTPEKRLEWVATISSGGSYTYYPDSVKGRFTISRDNAKNTLYLQMSSLRSEDTAMYYCASLASYYFDYWGQGTTLTVSS
VL: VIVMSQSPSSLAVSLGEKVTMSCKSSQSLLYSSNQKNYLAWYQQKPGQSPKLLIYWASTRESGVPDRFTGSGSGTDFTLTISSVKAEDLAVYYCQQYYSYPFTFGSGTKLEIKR
B8: mouse monoclonal antibody #6 (antibody)
chain 1: DAELVKPGASVKISCKASGYTFTDHSIHWVQQKPEQGLEWIGYISPGNGNIKYNEKFKGKATLTADKSSSTAYMQLNSLTSEDSAVYFCKRSLGRGGPYYFDYWGQGTTVTVSS
chain 2: DIVLTQAAPSLPVTPGESVSISCRSSKSLLHSNGNTYLYWFLQRPGQSPQLLIYRMSNLASGVPDRFSGSGSGTAFTLRISRVEAEDVGVYYCMQHREYPVTFGSGPN
B9: mouse monoclonal antibody #14 (antibody, V domains shown)
VH: EVQLHQFGAELVKPGASVKISCKASGYTFTDYNMDWVKQSHGKSLEWIGDINPNYDSTSYNQKFKGKATLTVDKSSSTAYMELRSLTSEDTAVYYCARSRSYDYEGFAYWGQGTLVTVSA
VL: DIQLTQSPASLSASVGETVTITCRASGNIHNYLAWYQQKQGKSPQLLVYNAKTLADGVPSRFSGSGSGTQYSLKINSLQPEDFGSYYCQHFWSTLTFGGGTKLEIKQ
notes: mouse hybridoma antibody; also called anti-CAPRIN-1 mouse monoclonal antibody #14; anti-CAPRIN-1 monoclonal antibody #14
B10: mouse monoclonal antibody #15 (antibody, V domains shown)
VH: B9 VH
VL: SGDRVSLSCRASQSISNYLHWYQQKSHESPRLLIKYASQSISGIPSRFSGSGSGTDFTLSINSVETEDFGMYFCQQSNSWPYTFGAGTKLEIKQ
notes: mouse hybridoma antibody; also called anti-CAPRIN-1 mouse monoclonal antibody #15; anti-CAPRIN-1 monoclonal antibody #15
B11: mouse monoclonal antibody #18 (antibody, V domains shown)
VH: LQESGAELARPGASVKLSCKASGYTFTSYWMQWVKQRPGQGLEWIGAIYPGDGDTRYTQKFKGKATLTADKSSSTAYMQLSSLASEDSAVYYCARGEYGNYFAYWGQGTTVTVSS
VL: TSDASLGERVTITCKASQDINSYLSWFQQKPGKSPKTLIYRANRLVDGVPSRFSGSGSGQDYSLTISSLEYEDMGIYYCLQYDEFPLTFGGGTKLEIKQ
notes: mouse hybridoma antibody; also called anti-CAPRIN-1 mouse monoclonal antibody #18; anti-CAPRIN-1 monoclonal antibody #18

Target: T1, CAPRIN-1 protein expressed on the cell …
Test: reactivity with gallbladder cancer cell lines, method not detailed

| binding result | Binder |
| --- | --- |
| binds | B1 |
| binds | B2 |
| binds | B3 |

Target: T1, CAPRIN-1 protein expressed on the cell …
Test: flow cytometry, TGBC14TKB cells, antibody 20 ug/mL, secondary antibody only as control
Protocol: (§1) A human gallbladder cancer cell line TGBC14TKB was investigated whether or not a CAPRIN-1 protein is expressed on the cell surface. 5×10⁵ cells of the gallbladder cancer cell line were centrifuged with a 1.5-mL micro centrifugation tube. The cells were subjected to reaction with each mouse anti-CAPRIN-1 antibody at a final concentration of 20 μg/mL, followed by being left to stand on ice for 1 hour. After washing with PBS, the cells were reacted with a 100-fold diluted Alexa488-labeled goat anti-mouse IgG antibody (manufactured by life technologies), followed by being left to stand on ice for […]. After washing with PBS, the fluorescence intensity was measured with FACS Calibur available from Becton, Dickinson and Company. As a negative control, only the secondary antibody was used in the reaction.
as §1, with “cell surface using mouse anti-CAPRIN-1 monoclonal antibodies #30 to #36.” for “cell surface.”, “of TGBC14TKB” for “of the gallbladder cancer cell line”, “each of” for “each”, “anti-CAPRIN-1 antibodies #30 to #36” for “anti-CAPRIN-1 antibody”, “Company. Separately, the cells were subjected to reaction with” for “Company. As a negative control,”, “antibody as a negative control.” for “antibody was used in the reaction.”

| increase in fluorescence intensity over control | Binder |
| --- | --- |
| ≥ 35% | B4 |
| ≥ 35% | B5 |

Target: T2, human CAPRIN-1 recombinant protein
Test: reactivity with CAPRIN-1 protein, method not detailed

| binding result | Binder |
| --- | --- |
| binds | B1 |
| binds | B2 |
| binds | B3 |

Target: T1, CAPRIN-1 protein expressed on the cell …
Test: cell-based or functional assay

| Binder | cytotoxicity (ADCC, 51Cr release) on TGBC14TKB, human NK cells |
| --- | --- |
| B6 | ≥ 15% |
| B7 | ≥ 15% |
| B8 | ≥ 15% |
| B9 | ≥ 15% |
| B10 | ≥ 15% |
| B11 | ≥ 15% |

Target: T3, polypeptide set forth in SEQ ID NO: 430
Test: reactivity with the epitope peptide, method not detailed

| binding result | Binder |
| --- | --- |
| binds | B1 |
| binds | B2 |
| binds | B3 |

Target: T1, CAPRIN-1 protein expressed on the cell …
Test: flow cytometry, TGBC14TKB cells, culture supernatant, isotype control antibody as control
Protocol: Subsequently, a gallbladder cell line TGBC14TKB, which was confirmed to express a CAPRIN-1 gene, was investigated for whether or not a CAPRIN-1 protein is expressed on the surfaces of these cells. 1×10⁶ cells of TGBC14TKB were centrifuged with a 1.5-mL micro centrifugation tube. To the cells was added the culture supernatant (100 μL) containing any of anti-CAPRIN-1 mouse monoclonal antibodies #1 to #22 reacting to cancer cell surface produced in Example 4 and anti-CAPRIN-1 mouse-chicken chimeric antibodies #1 to #3 produced in the above (2), followed by being left to stand on ice for 1 hour. After washing with PBS, the cells were suspended in a FITC-labeled goat anti-mouse IgG antibody (manufactured by life technologies) diluted by 500-fold with PBS containing 0.1% FBS, followed by being left to stand on ice for 1 hour. After washing with PBS, the fluorescence intensity was measured with FACS Calibur available from Becton, Dickinson and Company. Separately, as a control, the same procedure as in above was performed using an iso-type control antibody, instead of the culture supernatants containing the anti-CAPRIN-1 mouse monoclonal antibodies #1 to #22 and the mouse-chicken chimeric antibodies #1 to #3. As a result, the fluorescence intensity in the cells to which any of the monoclonal antibodies #1 to #22 and the mouse-chicken chimeric antibodies #1 to #3 was added was 20% or more higher than that in the control in every case. Specifically, in the case of using mouse-chicken chimeric antibody #1, the fluorescence intensity was enhanced by 200% or more. […] The rate of increase in the fluorescence intensity is represented by the rate of increase in the mean fluorescence intensity (MFI value) in each cell and is calculated by the following calculation formula: […]

| rate of increase in mean fluorescence intensity over control | Binder |
| --- | --- |
| ≥ 20% | B6 |
| ≥ 20% | B7 |
| ≥ 20% | B8 |
| ≥ 20% | B9 |
| ≥ 20% | B10 |
| ≥ 20% | B11 |
